T1: cyt bcc-aa3 (III2-IV2) supercomplex; QcrB sites (Corynebacterium glutamicum, UniProt Q79VE9)
T1 construct: native supercomplex purified from C. glutamicum membranes in DDM; dimer of 13-subunit protomers; with Cytochrome bc1 complex Rieske iron-sulfur subunit; Cytochrome bc1 complex cytochrome c subunit; Cytochrome c oxidase subunit 1; Cytochrome c oxidase subunit 2; Cytochrome c oxidase subunit 3; Cytochrome c oxidase polypeptide 4; Supercomplex subunit P29; Supercomplex subunit P20; Supercomplex subunit P12; Supercomplex subunit P8; Supercomplex subunit P6; ThiX
T1 sequence (Q79VE9 1-539): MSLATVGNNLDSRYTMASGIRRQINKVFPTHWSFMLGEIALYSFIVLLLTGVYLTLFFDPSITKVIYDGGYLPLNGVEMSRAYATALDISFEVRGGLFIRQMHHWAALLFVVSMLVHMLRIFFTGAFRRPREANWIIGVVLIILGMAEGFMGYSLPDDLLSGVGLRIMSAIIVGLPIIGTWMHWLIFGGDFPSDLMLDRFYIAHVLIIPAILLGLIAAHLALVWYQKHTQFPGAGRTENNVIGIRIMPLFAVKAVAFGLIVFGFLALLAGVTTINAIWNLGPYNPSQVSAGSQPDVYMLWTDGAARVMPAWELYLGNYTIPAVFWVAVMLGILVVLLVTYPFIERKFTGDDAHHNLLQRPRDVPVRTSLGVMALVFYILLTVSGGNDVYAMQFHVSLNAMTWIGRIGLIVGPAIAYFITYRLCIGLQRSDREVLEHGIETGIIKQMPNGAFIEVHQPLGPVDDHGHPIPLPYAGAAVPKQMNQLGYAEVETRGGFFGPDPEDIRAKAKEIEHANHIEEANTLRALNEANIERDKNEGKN

T2: cyt bcc-aa3 (III2-IV2) supercomplex; quinone sites of the cyt bcc complex (QcrB/QcrA) (Corynebacterium glutamicum, UniProt Q79VE8+Q79VE9)
T2 construct: native supercomplex purified from C. glutamicum membranes in DDM; dimer of 13-subunit protomers; with Cytochrome bc1 complex cytochrome c subunit; Cytochrome c oxidase subunit 1; Cytochrome c oxidase subunit 2; Cytochrome c oxidase subunit 3; Cytochrome c oxidase polypeptide 4; Supercomplex subunit P29; Supercomplex subunit P20; Supercomplex subunit P12; Supercomplex subunit P8; Supercomplex subunit P6; ThiX
T2 sequence (Q79VE9 1-539): T1 sequence (Q79VE9 1-539)
T2 sequence (Q79VE8 1-408): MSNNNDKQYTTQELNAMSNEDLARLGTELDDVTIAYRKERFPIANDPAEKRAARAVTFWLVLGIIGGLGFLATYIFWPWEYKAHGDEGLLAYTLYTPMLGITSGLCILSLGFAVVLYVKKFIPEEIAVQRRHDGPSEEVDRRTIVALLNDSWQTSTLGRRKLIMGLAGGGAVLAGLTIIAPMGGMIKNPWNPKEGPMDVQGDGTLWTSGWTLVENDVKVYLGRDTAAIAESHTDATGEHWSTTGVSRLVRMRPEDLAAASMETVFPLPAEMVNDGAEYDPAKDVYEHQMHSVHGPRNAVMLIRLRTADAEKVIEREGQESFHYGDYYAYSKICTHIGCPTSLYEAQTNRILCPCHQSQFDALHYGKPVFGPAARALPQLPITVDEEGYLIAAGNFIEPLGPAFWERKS

T3: CtaD, subunit of the cyt aa3 oxidase (haem a, haem a3, CuB) (Corynebacterium glutamicum, UniProt Q79VD7 1-584, His265 covalently bound to Tyr269)
T3 construct: CtaD, catalytic subunit (haem a, haem a3, CuB) of the cytochrome aa3 oxidase, Corynebacterium glutamicum; source: endogenous, purified from C. glutamicum membranes as part of the supercomplex (DDM, DEAE Sepharose, size exclusion)
T3 sequence (looked up): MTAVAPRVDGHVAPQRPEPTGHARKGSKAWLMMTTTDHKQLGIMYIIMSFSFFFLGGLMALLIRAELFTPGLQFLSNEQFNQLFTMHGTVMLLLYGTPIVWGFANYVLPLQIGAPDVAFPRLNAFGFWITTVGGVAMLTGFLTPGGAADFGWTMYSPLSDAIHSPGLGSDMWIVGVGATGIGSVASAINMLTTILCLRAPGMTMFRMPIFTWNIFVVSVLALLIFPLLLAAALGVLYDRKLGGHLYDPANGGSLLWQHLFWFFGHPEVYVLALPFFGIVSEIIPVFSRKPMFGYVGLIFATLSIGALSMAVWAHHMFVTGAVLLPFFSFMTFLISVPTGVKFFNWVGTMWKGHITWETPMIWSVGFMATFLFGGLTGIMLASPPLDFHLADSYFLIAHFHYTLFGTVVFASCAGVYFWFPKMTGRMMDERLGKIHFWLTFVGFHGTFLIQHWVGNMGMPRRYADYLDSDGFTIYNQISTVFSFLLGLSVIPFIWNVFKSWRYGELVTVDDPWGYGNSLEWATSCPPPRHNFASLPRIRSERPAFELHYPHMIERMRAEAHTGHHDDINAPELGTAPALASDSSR

B1: QcrA, Rieske-type iron-sulfur subunit of the cyt bcc complex (natural protein, Corynebacterium glutamicum, UniProt Q79VE8 1-408, looked up)
chain: T2 sequence (Q79VE8 1-408)
notes: QcrA, Rieske-type iron-sulfur (2Fe-2S) subunit of the cytochrome bcc complex, Corynebacterium glutamicum; Carries the 2Fe-2S cluster (ligands His335, His355); QcrA crosses the dimer; also called QcrA´ (the copy of the second protomer); Rieske homologous subunit; source: endogenous, purified from C. glutamicum membranes as part of the supercomplex (DDM, DEAE Sepharose, size exclusion)
B2: QcrB, cytochrome b subunit of the cyt bcc complex (natural protein, Corynebacterium glutamicum, UniProt Q79VE9 1-539, looked up)
chain: T1 sequence (Q79VE9 1-539)
notes: QcrB, cytochrome b subunit (haem bL, haem bH) of the cytochrome bcc complex, Corynebacterium glutamicum; has a 102 residue C-terminal extension; source: endogenous, purified from C. glutamicum membranes as part of the supercomplex (DDM, DEAE Sepharose, size exclusion)
B3: CtaE, subunit of the cyt aa3 oxidase (natural protein, Corynebacterium glutamicum, UniProt Q9AEL8 1-205, looked up)
chain: MTSAVGNTGMAAPQRVAALNRPNMVSVGTIVFLSQELMFFAGLFAMYFVSRANGLANGSWGEQTDHLNVPYALLITVILVSSSVTCQFGVFAAERGDVYGLRKWFLVTIILGSIFVIGQGYEYITLVGHGLTIQSSVYGSAFFITTGFHALHVIAGVMAFVVVLMRIHKSKFTPAQATAAMVVSYYWHFVDVVWIGLFITIYFIQ
notes: CtaE, subunit of the cytochrome aa3 oxidase, Corynebacterium glutamicum; source: endogenous, purified from C. glutamicum membranes as part of the supercomplex (DDM, DEAE Sepharose, size exclusion)
B4: CtaF, subunit of the cyt aa3 oxidase (natural protein, Corynebacterium glutamicum, UniProt Q8NNK3 1-143, looked up)
chain: MKSSAKLMYGPTVFMAAMAVIYIFATMHVSDGGSVKGVEWVGSVALVLSAGLTLMLGVYLHFTEVRVDVLPEDWEEAEVADKAGTLGFFSPSSIWPAAMSGAVGFLAFGVVYFHYWMIAVGLMLLIFTITKLNLQYGVPKEKH
notes: CtaF, subunit of the cytochrome aa3 oxidase, Corynebacterium glutamicum; source: endogenous, purified from C. glutamicum membranes as part of the supercomplex (DDM, DEAE Sepharose, size exclusion)

What was measured:
[1] = target: T1, cyt bcc-aa3 (III2-IV2) supercomplex; QcrB sites; assay: cryo-EM structure; absorption spectroscopy; format: binding; conditions: co-purified endogenous pigment; narrow tunnel of QcrB near Qo site
[2] = target: T2, cyt bcc-aa3 (III2-IV2) supercomplex; quinone sites of the cyt bcc complex (QcrB/QcrA); assay: cryo-EM structure, […] Å; format: binding; conditions: 20 µM stigmatellin, 2.5 mM azide also present; Qo site, transition-state analogue; QcrB and His355 of QcrA
[3] = target: the molecule itself; assay: cryo-EM structure; supercomplex purified from C. glutamicum membranes in DDM, 10 mg/ml; with 20 µM stigmatellin and 2.5 mM sodium azide (2.8 Å) and as isolated (3.1 Å)
[4] = target: B2; assay: as above; conditions: both partners purified
[5] = target: T3, CtaD, subunit of the cyt aa3 oxidase …; assay: as above; conditions: both partners purified

CC(C)=CCC/C(C)=C/C=C/C(C)=C/C=C/C(C)=C/C=C/C=C(C)/C=C/C=C(C)/C=C/C=C(\C)CCC=C(C)C [lycopene]
cryo-EM structure; absorption spectroscopy [1]: a lycopene molecule is resolved in a narrow tunnel of QcrB

C/C=C(C)/C=C/C=C/[C@H](OC)[C@@H](C)[C@@H](OC)[C@@H](C)CCc1oc2c(O)c(OC)cc(OC)c2c(=O)c1C [stigmatellin]
cryo-EM structure, 2.8 Å [2]: The cryo-EM map clearly resolves stigmatellin bound between FeS and haem bL

B1
binding result [3]: binds
binding result [4]: binds

B2
binding result [5]: binds

B3
binding result [4]: binds

B4
binding result [4]: binds
